From US20230167182A1 (BIOSION, published 2023)
Read-outs that look alike come from different tables or passages of the source.

T1: recombinant human IL6R-his (human, UniProt P08887 20-365)
T1 construct: In house made; the entry includes the C-terminal His tag; also called human IL6R-his protein
T1 sequence: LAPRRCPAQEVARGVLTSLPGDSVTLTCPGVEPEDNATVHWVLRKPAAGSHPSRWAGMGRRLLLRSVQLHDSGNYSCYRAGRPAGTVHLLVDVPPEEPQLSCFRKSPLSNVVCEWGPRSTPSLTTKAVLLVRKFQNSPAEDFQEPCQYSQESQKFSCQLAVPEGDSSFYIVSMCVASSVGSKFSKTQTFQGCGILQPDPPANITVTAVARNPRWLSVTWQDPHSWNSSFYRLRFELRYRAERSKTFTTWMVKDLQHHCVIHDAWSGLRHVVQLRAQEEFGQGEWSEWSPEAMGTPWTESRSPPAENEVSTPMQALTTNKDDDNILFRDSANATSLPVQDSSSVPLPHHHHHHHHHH


Legend:
[1] = target: T1, recombinant human IL6R-his; assay: SPR Biacore; antibody from diluted cell supernatant captured by anti-human IgG on CM5, human IL6R in flow
Experimental: (§1) Un-reacted moieties on the biosensor surface were blocked with ethanolamine. […] Then, serially diluted recombinant human IL6R-his (in house made, amino acid sequence set forth in SEQ ID NO: 44) or macaca IL6R-his protein (in house made, amino acid sequence set forth in SEQ ID NO: 45), starting at 100 nM with a 2-fold serial dilution in HBS-EP⁺ buffer (provided by Biacore), was flowed onto the chip at a flow rate of 30 μL/min. The antigen-antibody association kinetics was followed for 2 minutes and the dissociation kinetics was followed for 10 minutes. The association and dissociation curves were fit to a 1:1 Langmuir binding model using BIAcore evaluation software.
Cell supernatants containing humanized antibodies were harvested after six days in shaking flasks and directly subjected to BIAcore test following the protocol described above with modifications.

[2] = target: T1, recombinant human IL6R-his; assay: SPR Biacore; antibody captured by anti-human IgG on CM5, human IL6R-his at 100 nM
Experimental: as §1
The recombinant human IL6R-his (amino acid sequence set forth in SEQ ID NO: 44) at the concentration of 100 nM instead of serially diluted recombinant human IL6R-his, was flowed onto the chip at a flow rate of 30 μL/min.

human IL6R-Fc protein [3] = target: T2, human IL6R-Fc protein (human, biotin-labeled in the ELISAs (sites not given)); assay: capture ELISA: antibody captured on anti-IgG F(ab')2 coated plate, then biotin-labeled human IL6R-Fc, streptavidin-HRP
T2 construct: In house made; also called biotin-labeled human IL6R-Fc protein
Experimental: (§2) For the capture ELISA, 96-well micro plates were coated with 2 μg/ml AffiniPure Goat Anti-Mouse IgG, F(ab′)₂ fragment specific (Jackson ImmunoResearch Laboratories, Inc., Cat #115-005-072) in PBS, 100 μl/well, and incubated for 2 hours at 37° C. Plates were washed once with wash buffer (PBS+0.05% v/v Tween-20, PBST) and then blocked with 200 μl/well blocking buffer (5% w/v non-fatty milk in PBST) overnight at 4° C. […] Plates containing captured anti-IL6R antibodies were incubated with biotin-labeled human IL6R-Fc protein (prepared in house, SEQ ID NO: 43, 39.5 ng/ml in 2.5% w/v non-fatty milk in PBST, 100 μl/well) for 40 minutes at 37° C., washed 4 times, and incubated with streptavidin conjugated HRP (1:10000 dilution in PBST, Jackson ImmunoResearch Laboratories, Inc., Cat #016-030-084, 100 μl/well) for 40 minutes at 37° C. After a final wash, plates were incubated with 100 μl/well ELISA substrate TMB (InnoReagents, Cat #TMB-S-002). The reaction was stopped 3-10 minutes later at room temperature with 50 μl/well 1M H₂SO₄, and the absorbance of each well was read on a microplate reader using dual wavelength mode at 450 nm for TMB and 630 nm as the reference wavelength. Then the OD (450-630) values were plotted against antibody concentration. Data was analyzed using Graphpad Prism software and EC₅₀ values were reported.
(§3) For the capture ELISA, AffiniPure Goat Anti-Human IgG, F(ab′)₂ fragment specific (Jackson Immuno Research, Cat #109-005-097) was used instead of AffiniPure Goat Anti-Mouse IgG, F(ab′)₂ fragment specific, 100 μl/well.
Target sequence in this assay (chain, as listed by the source limits assumed): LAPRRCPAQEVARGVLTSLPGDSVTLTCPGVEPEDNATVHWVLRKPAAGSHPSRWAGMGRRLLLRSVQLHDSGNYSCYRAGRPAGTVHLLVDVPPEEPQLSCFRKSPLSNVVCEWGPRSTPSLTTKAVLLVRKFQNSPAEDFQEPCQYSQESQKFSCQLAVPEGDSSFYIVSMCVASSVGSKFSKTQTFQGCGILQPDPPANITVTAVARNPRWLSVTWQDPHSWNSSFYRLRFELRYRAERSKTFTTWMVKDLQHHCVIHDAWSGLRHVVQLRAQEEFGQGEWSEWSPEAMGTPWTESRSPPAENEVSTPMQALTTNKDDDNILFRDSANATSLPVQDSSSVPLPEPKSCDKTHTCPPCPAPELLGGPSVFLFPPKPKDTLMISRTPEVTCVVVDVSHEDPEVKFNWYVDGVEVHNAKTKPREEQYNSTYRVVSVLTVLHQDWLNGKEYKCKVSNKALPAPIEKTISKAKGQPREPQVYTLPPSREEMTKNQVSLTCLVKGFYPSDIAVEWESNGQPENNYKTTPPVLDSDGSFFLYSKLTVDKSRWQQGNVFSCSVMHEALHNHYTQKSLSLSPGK

human IL6R-Fc protein [4] = target: T2, human IL6R-Fc protein; assay: ligand blocking ELISA: antibody pre-incubated with biotin-labeled human IL6R-Fc, added to plate-coated human IL6 (blocked ligand: human IL6)
Target sequence in this assay (chain, as listed by the source limits assumed): as above

human IL6R-Fc protein [5] = target: T2, human IL6R-Fc protein; assay: benchmark blocking ELISA: antibody pre-incubated with biotin-labeled human IL6R-Fc, added to plate-coated Tocilizumab (competitor: Tocilizumab)
Target sequence in this assay (chain, as listed by the source limits assumed): as above

human IL6R-Fc protein [6] = target: T2, human IL6R-Fc protein; assay: capture ELISA: antibody captured on anti-IgG F(ab')2 coated plate, then biotin-labeled human IL6R-Fc, streptavidin-HRP; remark: listed apart in the source
Experimental: as §2, §3

human IL6R-Fc protein [7] = target: T2, human IL6R-Fc protein; assay: ligand blocking ELISA: antibody pre-incubated with biotin-labeled human IL6R-Fc, added to plate-coated human IL6 (blocked ligand: human IL6); remark: listed apart in the source
human IL6R-Fc protein [8] = target: T2, human IL6R-Fc protein; assay: benchmark blocking ELISA: antibody pre-incubated with biotin-labeled human IL6R-Fc, added to plate-coated Tocilizumab (competitor: Tocilizumab); remark: listed apart in the source

| Kd [1] [pM] | koff [1] [s⁻¹] | kon [1] [M⁻¹ s⁻¹] | Binder | other results |
| --- | --- | --- | --- | --- |
| 584 | 0.000195 | 334000 | humanized antibody hu1H7-V6 (antibody, human IgG1, kappa, V domains shown, Human IgG1 / kappa) VH: QVQLVQSGAEVKKPGASVKVSCKASGYTFTNYWMHWVRQAPGQGLEWIGEINPTNGRTNYNENFKSKVTLTVDTSTSTVYMELSSLRSEDTAVYYCARLNTHYVFDSWGQGTLVTVSS VL: EIVLTQSPGTLSLSPGERATLSCSVSSSISSNYLHWYQQKPGLSPRLLISRTSTLASGIPARFSGSGSGTEYTLTISRMQSEDFAVYYCQQGSGIPFTFGQGTKLEIKR |  |
| 733 | 0.000197 | 269000 | humanized antibody hu1H7-V2 (antibody, human IgG1, kappa, V domains shown, Human IgG1 / kappa) VH: QVQLVQSGAEVKKPGASVKVSCKASGYTFTNYWMHWVRQAPGQGLEWIGEINPTNGRTNYNENFKSKVTLTRDTSTSTVYMELSSLRSEDTAVYYCARLNTHYVFDSWGQGTLVTVSS VL: EIVLTQSPGTLSLSPGERATLSCSVSSSISSNYLHWYQQKPGLSPRLLISRTSTLASGIPARFSGSGSGTEYTLTISRMQSEDFAVYYCQQGSGIPFTFGQGTKLEIKR |  |
| 630 | 0.000165 | 262000 | humanized antibody hu1H7-V1-2 (antibody, human IgG1, kappa, V domains shown, Human IgG1 / kappa; also called hu1H7-Vl-2) VH: QVQLVQSGAEVKKPGASVKVSCKASGYTFTNYWMHWVKQAPGQGLDWIGEINPTNGRTNYNENFKSKATLTVDKSTSTAYMELSSLRSEDTAVYYCARLNTHYVFDSWGQGTLVTVSS VL: EIVLTQSPGTLSLSPGERATLTCSVSSSISSNYLHWYQQKPGFSPRLLISRTSTLASGIPARFSGSGSGTSYSLTISRMQSEDFAVYYCQQGSGIPFTFGQGTKLEIKR |  |
| 910 | 0.000199 | 218000 | humanized antibody hu1H7-V8 (antibody, human IgG1, kappa, V domains shown, Human IgG1 / kappa) VH: QVQLVQSGAEVKKPGASVKVSCKASGYTFTNYWMHWVRQAPGQGLEWIGEINPTNGRTNYNENFKSKVTLTRDTSTSTVYMELSSLRSEDTAVYYCARLNTHYVFDSWGQGTLVTVSS VL: EIVLTQSPGTLSLSPGERATLSCSVSSSISSNYLHWYQQKPGLSPRLLISRTSTLASGIPARFSGSGSGTEFTLTISRLQSEDFAVYYCQQGSGIPFTFGQGTKLEIKR |  |
| 855 | 0.000199 | 233000 | humanized antibody hu1H7-V7 (antibody, human IgG1, kappa, V domains shown, Human IgG1 / kappa) VH: QVQLVQSGAEVKKPGASVKVSCKASGYTFTNYWMHWVRQAPGQGLEWIGEINPTNGRTNYNENFKSKVTLTVDKSTSTAYMELSSLRSEDTAVYYCARLNTHYVFDSWGQGTLVTVSS VL: EIVLTQSPGTLSLSPGERATLSCSVSSSISSNYLHWYQQKPGLSPRLLISRTSTLASGIPARFSGSGSGTEFTLTISRLQSEDFAVYYCQQGSGIPFTFGQGTKLEIKR |  |
| 669 | 0.000173 | 258000 | humanized antibody hu1H7-V1 (antibody, human IgG1, kappa, V domains shown, Human IgG1 / kappa; also called hu1H7-Vl) VH: QVQLVQSGAEVKKPGASVKVSCKASGYTFTNYWMHWVRQAPGQGLEWIGEINPTNGRTNYNENFKSKVTLTVDKSTSTAYMELSSLRSEDTAVYYCARLNTHYVFDSWGQGTLVTVSS VL: EIVLTQSPGTLSLSPGERATLSCSVSSSISSNYLHWYQQKPGLSPRLLISRTSTLASGIPARFSGSGSGTEYTLTISRMQSEDFAVYYCQQGSGIPFTFGQGTKLEIKR |  |
| 849 | 0.000202 | 238000 | humanized antibody hu1H7-V11 (antibody, human IgG1, kappa, V domains shown, Human IgG1 / kappa) VH: QVQLVQSGAEVKKPGASVKVSCKASGYTFTNYWMHWVRQAPGQGLEWIGEINPTNGRTNYNENFKSRVTLTVDTSTSTVYMELSSLRSEDTAVYYCARLNTHYVFDSWGQGTLVTVSS VL: EIVLTQSPGTLSLSPGERATLSCSVSSSISSNYLHWYQQKPGLSPRLLISRTSTLASGIPARFSGSGSGTEFTLTISRLQSEDFAVYYCQQGSGIPFTFGQGTKLEIKR |  |
| 744 | 0.000207 | 279000 | humanized antibody hu1H7-V12 (antibody, human IgG1, kappa, V domains shown, Human IgG1 / kappa) VH: QVQLVQSGAEVKKPGASVKVSCKASGYTFTNYWMHWVRQAPGQGLEWIGEINPTNGRTNYNENFKSKVTLTVDTSTSTVYMELSSLRSEDTAVYYCARLNTHYVFDSWGQGTLVTVSS VL: EIVLTQSPGTLSLSPGERATLSCSVSSSISSNYLHWYQQKPGLSPRLLISRTSTLASGIPARFSGSGSGTEFTLTISRLQSEDFAVYYCQQGSGIPFTFGQGTKLEIKR |  |
| 568 | 0.000176 | 311000 | humanized antibody hu1H7-V3 (antibody, human IgG1, kappa, V domains shown, Human IgG1 / kappa) VH: QVQLVQSGAEVKKPGASVKVSCKASGYTFTNYWMHWVRQAPGQGLEWIGEINPTNGRTNYNENFKSKVTMTVDTSTSTVYMELSSLRSEDTAVYYCARLNTHYVFDSWGQGTLVTVSS VL: EIVLTQSPGTLSLSPGERATLSCSVSSSISSNYLHWYQQKPGLSPRLLISRTSTLASGIPARFSGSGSGTEYTLTISRMQSEDFAVYYCQQGSGIPFTFGQGTKLEIKR |  |
| 1050 | 0.000222 | 212000 | humanized antibody hu1H7-V9 (antibody, human IgG1, kappa, V domains shown, Human IgG1 / kappa) VH: QVQLVQSGAEVKKPGASVKVSCKASGYTFTNYWMHWVRQAPGQGLEWIGEINPTNGRTNYNENFKSKVTMTVDTSTSTVYMELSSLRSEDTAVYYCARLNTHYVFDSWGQGTLVTVSS VL: EIVLTQSPGTLSLSPGERATLSCSVSSSISSNYLHWYQQKPGLSPRLLISRTSTLASGIPARFSGSGSGTEFTLTISRLQSEDFAVYYCQQGSGIPFTFGQGTKLEIKR |  |
|  |  |  | Chimeric 1B5 (antibody, human IgG1, kappa, V domains shown, Mouse variable regions on human IgG1 / human kappa constant regions; also called chimeric antibody 1B5) VH: QVQLQQPGAELVKPGASVKLSCKASGYTFTSYWMHWVKQRPGQGLEWIGEINPSNGRTNYNENFKSKATLTVDKSSSTAYMQLSSLTSEDSAVYYCARLNTHYVFDYWGQGTTLTVSS VL: EIVLTQSPTILAASPGEKITFTCSVSSSISSNYLHWYQQKPGFSPKLLIYRTSNLASGVPARFSGSGSGTSYSLTIGTMEAEDVATYYCQQGSGIPFTFGSGTKLEIKR | Kd [2]: 915 pM; koff [2]: 0.000194 s⁻¹; kon [2]: 212000 M⁻¹ s⁻¹; EC50 (human IL6R-Fc protein [3]): 101 pM; IC50 (human IL6R-Fc protein [4]): 300 pM; IC50 (human IL6R-Fc protein [5]): 317 pM |
|  |  |  | Chimeric 1H9 (antibody, human IgG1, kappa, V domains shown, Mouse variable regions on human IgG1 / human kappa constant regions; also called chimeric antibody 1H9) VH: QVQLQQPGAELVKPGASVKLSCKASGYTFTSYWMHWVKLRPGQGLEWIGEINPTNGRTNYYEKFKNRATLTADKSSSTAYMQLSSLTFEDSAVYFCAKFHYSRWYFDVWGTGTTVTVSS VL: DIVMTQSQKFMSTSVGDRVSITCKASQNVGTAVVWYQQKPGQSPKLLINPASNRYTGVPDRFTGSGSGTDFTLTISNMQSEDLADYFCQQYSSYPLTFGAGTKLELKR | Kd [2]: 915 pM; koff [2]: 0.000194 s⁻¹; EC50 (human IL6R-Fc protein [6]): 89.7 pM; IC50 (human IL6R-Fc protein [7]): 213 pM; IC50 (human IL6R-Fc protein [8]): 338 pM |
